Assays:
[1] = target: T1, human MSLN-R3-his protein (human, UniProt Q13421 487-598); assay: ELISA, coated antigen; antibody 100 nM
T1 construct: also called human MSLN-R3 protein; hMSLN-R3-his; not shown: His tag

[2] = target: T1, human MSLN-R3-his protein; assay: ELISA, coated antigen; antibody 0.01 nM
[3] = target: T1, human MSLN-R3-his protein; assay: ELISA, coated antigen; antibody 10 nM
[4] = target: T2, human MSLN-R2-his protein (human, UniProt Q13421 391-486); assay: ELISA, coated antigen; antibody 0.0001 nM
T2 construct: also called human MSLN-R2 protein; hMSLN-R2-his; not shown: His tag
T2 sequence (Q13421 other isoform, or with tags, fused parts or gaps): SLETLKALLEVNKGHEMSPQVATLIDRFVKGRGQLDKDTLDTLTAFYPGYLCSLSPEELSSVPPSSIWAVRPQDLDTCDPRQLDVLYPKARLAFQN

[5] = target: T2, human MSLN-R2-his protein; assay: ELISA, coated antigen; antibody 1 nM
[6] = target: T2, human MSLN-R2-his protein; assay: ELISA, coated antigen; antibody 0.01 nM
[7] = target: T3, human MSLN-R3-3 polypeptide (human); assay: ELISA, coated antigen; no antibody (blank, column 'none')
T3 construct: also called human MSLN-R3-3 protein; hMSLN-R3-3

[8] = target: T2, human MSLN-R2-his protein; assay: as above
[9] = target: T1, human MSLN-R3-his protein; assay: ELISA, coated antigen; antibody 0.001 nM
[10] = target: T1, human MSLN-R3-his protein; assay: ELISA, coated antigen; antibody 1 nM
[11] = target: T3, human MSLN-R3-3 polypeptide; assay: ELISA, coated antigen; antibody 0.1 nM
[12] = target: T3, human MSLN-R3-3 polypeptide; assay: ELISA, coated antigen; antibody 1 nM
[13] = target: T3, human MSLN-R3-3 polypeptide; assay: ELISA, coated antigen; antibody 100 nM
[14] = target: T1, human MSLN-R3-his protein; assay: ELISA, coated antigen; no antibody (blank, column 'none')
[15] = target: T2, human MSLN-R2-his protein; assay: ELISA, coated antigen; antibody 100 nM
[16] = target: T1, human MSLN-R3-his protein; assay: ELISA, coated antigen; antibody 0.1 nM
[17] = target: T3, human MSLN-R3-3 polypeptide; assay: ELISA, coated antigen; antibody 0.001 nM
[18] = target: T3, human MSLN-R3-3 polypeptide; assay: ELISA, coated antigen; antibody 10 nM
[19] = target: T2, human MSLN-R2-his protein; assay: ELISA, coated antigen; antibody 0.001 nM
[20] = target: T2, human MSLN-R2-his protein; assay: ELISA, coated antigen; antibody 0.1 nM
[21] = target: T1, human MSLN-R3-his protein; assay: ELISA, coated antigen; antibody 0.0001 nM
[22] = target: T3, human MSLN-R3-3 polypeptide; assay: ELISA, coated antigen; antibody 0.0001 nM
[23] = target: T3, human MSLN-R3-3 polypeptide; assay: ELISA, coated antigen; antibody 0.01 nM
[24] = target: T2, human MSLN-R2-his protein; assay: ELISA, coated antigen; antibody 10 nM
[25] = target: T4, human MSLN-hFc protein (Acro, Cat. No. MSN-H5253) (human, UniProt Q13421 296-580); assay: ELISA, coated human MSLN-hFc, antibody 1 nM
T4 construct: bought protein; also called human MSLN full-length protein; not shown: human Fc (hFc) of the bought protein
T4 sequence (Q13421 other isoform, or with tags, fused parts or gaps limits assumed): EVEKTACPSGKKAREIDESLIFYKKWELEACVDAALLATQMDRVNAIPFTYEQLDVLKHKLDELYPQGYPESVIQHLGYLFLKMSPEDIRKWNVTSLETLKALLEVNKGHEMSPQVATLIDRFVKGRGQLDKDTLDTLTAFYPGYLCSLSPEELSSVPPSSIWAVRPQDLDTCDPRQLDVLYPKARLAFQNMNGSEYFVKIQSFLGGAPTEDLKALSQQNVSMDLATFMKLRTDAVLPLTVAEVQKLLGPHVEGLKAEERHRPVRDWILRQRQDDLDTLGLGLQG

[26] = target: T4, human MSLN-hFc protein (Acro, Cat. No. …); assay: ELISA, coated human MSLN-hFc, antibody 0.001 nM
[27] = target: T4, human MSLN-hFc protein (Acro, Cat. No. …); assay: ELISA, coated human MSLN-hFc, antibody 0.0001 nM
[28] = target: T4, human MSLN-hFc protein (Acro, Cat. No. …); assay: ELISA, coated human MSLN-hFc, antibody 0.1 nM
[29] = target: T4, human MSLN-hFc protein (Acro, Cat. No. …); assay: ELISA, coated human MSLN-hFc, antibody 0.01 nM
[30] = target: T4, human MSLN-hFc protein (Acro, Cat. No. …); assay: ELISA, coated human MSLN-hFc, antibody 10 nM
[31] = target: T4, human MSLN-hFc protein (Acro, Cat. No. …); assay: ELISA, coated human MSLN-hFc, antibody 100 nM

T1 sequence (Q13421 495-606): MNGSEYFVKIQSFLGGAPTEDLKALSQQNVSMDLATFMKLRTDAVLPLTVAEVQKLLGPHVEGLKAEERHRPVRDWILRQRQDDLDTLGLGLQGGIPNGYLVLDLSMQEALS

B1: S009-F3.74.20 (antibody, human IgG1, kappa, V domains shown)
VH: RVQLQQSGAELVRPGASVTLSCKASGYTFTDSEMHWVKQTPVHGLEWIGAIDPEIDGTAYNQNFRDKAILTADKSSSTAYMELRSLTSEDSAVYYCTTYFGSGYGYFDVWGTGTTVTVSS
VL: DVVMTQTPLSLSVSLGDQASISCRSSQSLVYSNGNTYLHWFLQKPGQSPKLLIYKVSNRFSGVPDRFSGSGSGTDFTLKINRVEAEDLGVYFCSQSTHIPFTFGAGTKLELKR
notes: Human-murine chimeric antibody, human IgG1/kappa constant regions
OD450 [1]: 2.06 OD450 | OD450 [2]: 0.29 OD450 | OD450 [3]: 1.83 OD450 | OD450 [4]: 0.06 OD450 | OD450 [5]: 0.09 OD450 | OD450 [6]: 0.06 OD450 | OD450 [7]: 0.07 OD450 | OD450 [8]: 0.07 OD450 | OD450 [9]: 0.1 OD450 | OD450 [10]: 1.88 OD450 | OD450 [11]: 0.96 OD450 | OD450 [12]: 1.83 OD450 | OD450 [13]: 2.07 OD450 | OD450 [14]: 0.09 OD450 | OD450 [15]: 0.09 OD450 | OD450 [16]: 1.07 OD450 | OD450 [17]: 0.09 OD450 | OD450 [18]: 1.9 OD450 | OD450 [19]: 0.06 OD450 | OD450 [20]: 0.06 OD450 | OD450 [21]: 0.07 OD450 | OD450 [22]: 0.07 OD450 | OD450 [23]: 0.21 OD450 | OD450 [24]: 0.17 OD450

B2: S009-F3-63.5 (antibody, human IgG1, kappa, V domains shown)
VH: QVQLQQSGAELVRPGASVTLSCKASGYTFTDYEMHWVKQTPVHGLEWIGGIDPETGDTAYNQQFKGKAILTADRSSSTAYMELRSLTSEDSAVYYCTNYASSREDYWGQGTTLTVSS
VL: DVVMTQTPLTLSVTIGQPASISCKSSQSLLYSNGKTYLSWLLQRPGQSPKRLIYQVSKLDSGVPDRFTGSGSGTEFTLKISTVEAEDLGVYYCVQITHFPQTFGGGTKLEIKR
notes: as for B1
OD450 [1]: 2.36 OD450 | OD450 [2]: 0.41 OD450 | OD450 [3]: 1.98 OD450 | OD450 [4]: 0.06 OD450 | OD450 [5]: 0.05 OD450 | OD450 [6]: 0.05 OD450 | OD450 [7]: 0.07 OD450 | OD450 [8]: 0.07 OD450 | OD450 [9]: 0.1 OD450 | OD450 [10]: 1.78 OD450 | OD450 [11]: 1.46 OD450 | OD450 [12]: 1.75 OD450 | OD450 [13]: 2.3 OD450 | OD450 [14]: 0.06 OD450 | OD450 [15]: 0.09 OD450 | OD450 [16]: 1.43 OD450 | OD450 [17]: 0.1 OD450 | OD450 [18]: 1.95 OD450 | OD450 [19]: 0.05 OD450 | OD450 [20]: 0.05 OD450 | OD450 [21]: 0.06 OD450 | OD450 [22]: 0.07 OD450 | OD450 [23]: 0.4 OD450 | OD450 [24]: 0.07 OD450

B3: S009-F3.38.10 (antibody, human IgG1, kappa, V domains shown)
VH: EVQLQQSGPVLVKPGASVKMSCEASGYIFTDYYMNWVKKSHGKSLEWIGVINPKNGVISHNQKFKGKATLTVDKSSNTAYMELSSLTSEDSAVYYCANYGSRFYAMDYWGQGTSVTVSS
VL: DVVMTQTPLSLPVSLGDQASISCRSSQSLIHSDGNTYLQWYLQKSGQSPKLLIYKVSNRFSGVPDRFSGSGSGTDFTLKISRVETEDLGVYFCSQTTHVPFTFGSGTKLEIKR
notes: as for B1
OD450 [1]: 2.05 OD450 | OD450 [2]: 0.41 OD450 | OD450 [3]: 1.85 OD450 | OD450 [4]: 0.07 OD450 | OD450 [5]: 0.21 OD450 | OD450 [6]: 0.11 OD450 | OD450 [7]: 0.07 OD450 | OD450 [8]: 0.08 OD450 | OD450 [9]: 0.12 OD450 | OD450 [10]: 1.71 OD450 | OD450 [11]: 0.08 OD450 | OD450 [12]: 0.08 OD450 | OD450 [13]: 0.32 OD450 | OD450 [14]: 0.09 OD450 | OD450 [15]: 0.13 OD450 | OD450 [16]: 1.47 OD450 | OD450 [17]: 0.08 OD450 | OD450 [18]: 0.1 OD450 | OD450 [19]: 0.06 OD450 | OD450 [20]: 0.18 OD450 | OD450 [21]: 0.08 OD450 | OD450 [22]: 0.07 OD450 | OD450 [23]: 0.08 OD450 | OD450 [24]: 0.18 OD450

B4: S009-F3.80.22 (antibody, human IgG1, kappa, V domains shown)
VH: QVQLQQSGAELVRPGASVTLSCKASGYTFTDYEIHWVKQTPVHGLEWIGAFDPEIGGSAYNQKFKDRATLTADKSSSTAYMELHSLTAEDSAVYYCTDYYGSSSGYFDVWGTGTTVTVSS
VL: DVVMTQTPLSLPVSLGDQASISCRSSQSLEHNNGNTYLHWFLHKPGQSPKLLIYKVSNRFSGVPDRFSGSGSGTDFTLKISRVEAEDLGVYFCSQSTHVPFTFGSGTKLEIKR
notes: as for B1
OD450 [1]: 2.02 OD450 | OD450 [2]: 0.51 OD450 | OD450 [3]: 1.88 OD450 | OD450 [4]: 0.07 OD450 | OD450 [5]: 0.06 OD450 | OD450 [6]: 0.07 OD450 | OD450 [7]: 0.08 OD450 | OD450 [8]: 0.07 OD450 | OD450 [9]: 0.12 OD450 | OD450 [10]: 1.91 OD450 | OD450 [11]: 1.47 OD450 | OD450 [12]: 1.84 OD450 | OD450 [13]: 1.93 OD450 | OD450 [14]: 0.08 OD450 | OD450 [15]: 0.06 OD450 | OD450 [16]: 1.55 OD450 | OD450 [17]: 0.15 OD450 | OD450 [18]: 1.91 OD450 | OD450 [19]: 0.06 OD450 | OD450 [20]: 0.06 OD450 | OD450 [21]: 0.08 OD450 | OD450 [22]: 0.08 OD450 | OD450 [23]: 0.55 OD450 | OD450 [24]: 0.17 OD450

B5: F2.39.3-H5 (scFv, not shown: small tags and cut ends)
scFv: EVQLVQSGAEVKKPGASVKVSCKASGYTFTNYWMHWVRQAPGQGLEWMGNINPSSGDSYYNERFMSRVTMTVDKSTSTAYMELSSLRSEDTAVYYCARSGGLWLAFWGQGTLVTVSSGGGGSGGGGSGGGGSDIVMTQSPDSLAVSLGERATINCKSSQTLLNSVSQNNYLAWYQQKPGQSPKLLIYFASTRESGVPDRFSGSGSGTDFTLTISSLQAEDVAVYYCQQHYRTPYTFGGGTKVEIK
notes: also called S009-F2.39.3 humanized VH2 + VL1
OD450 nm [25]: 0.39 | OD450 nm [26]: 0.06 | OD450 nm [27]: 0.06 | OD450 nm [28]: 0.11 | OD450 nm [29]: 0.06 | OD450 nm [30]: 1.21 | OD450 nm [31]: 1.87

B6: F2.39.3-H2 (scFv, not shown: small tags and cut ends)
scFv: EVQLVQSGAEVKKPGASVKVSCKASGYTFTNYWMHWVRQAPGQGLEWMGNINPSSGDSYYNERFMSRVTMTVDKSTSTVYMELSSLRSEDTAVYYCARSGGLWLAFWGQGTLVTVSSGGGGSGGGGSGGGGSDIVMTQSPDSLAVSLGERATINCKSSQTLLNSVSQNNYLAWYQQKPGQSPTLLIYFASTRESGVPDRFSGSGSGTDFTLTISSLQAEDVAVYYCQQHYRTPYTFGGGTKVEIK
notes: also called S009-F2.39.3 humanized VH1 + VL2
OD450 nm [25]: 0.3 | OD450 nm [26]: 0.06 | OD450 nm [27]: 0.06 | OD450 nm [28]: 0.1 | OD450 nm [29]: 0.06 | OD450 nm [30]: 1.19 | OD450 nm [31]: 1.82

B7: F2.39.3-H1 (scFv, not shown: small tags and cut ends)
scFv: EVQLVQSGAEVKKPGASVKVSCKASGYTFTNYWMHWVRQAPGQGLEWMGNINPSSGDSYYNERFMSRVTMTVDKSTSTVYMELSSLRSEDTAVYYCARSGGLWLAFWGQGTLVTVSSGGGGSGGGGSGGGGSDIVMTQSPDSLAVSLGERATINCKSSQTLLNSVSQNNYLAWYQQKPGQSPKLLIYFASTRESGVPDRFSGSGSGTDFTLTISSLQAEDVAVYYCQQHYRTPYTFGGGTKVEIK
notes: expressed as VH-(G4S)3-VL-his or VL-(G4S)3-VH-his; also called S009-F2.39.3 humanized VH1 + VL1
OD450 nm [25]: 0.55 | OD450 nm [26]: 0.06 | OD450 nm [27]: 0.06 | OD450 nm [28]: 0.17 | OD450 nm [29]: 0.07 | OD450 nm [30]: 1.23 | OD450 nm [31]: 1.68
